Reference: the nanobody polyreactivity screen of Harvey et al. (2022)

Assay: yeast display, Sf9 membrane polyspecificity reagent, FACS + sequencing; frameworks hold sequencing errors
Outline: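 Nanobodies came from a synthetic yeast display library in Saccharomyces cerevisiae BJ5465, induced with galactose for 36–48 hours and stained for 1 hour at 4 °C with 10% biotinylated, detergent-solubilized Sf9 membrane reagent. Cells were enriched on streptavidin microbeads and then FACS-sorted, with low and high (top ~1%) gates set on anti-HA fluorescence for expression and streptavidin fluorescence for reagent binding. Each polyreactivity label reflects the gate a clone came from. Genes were amplified by colony PCR, sequenced by MiSeq 2 × 250 and filtered by CDR length.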

Row | Sequence | polyreactivity (PSR sort gate)
1 | QVQLVESGGGLVQAGGSLRLSCAASGRIFDYNVMGWYRQPPGKESELVAAISWDGDSTYYADSVKGRFTISRDNAKNSVYLQMKSLKPEDTAVYYCNRVEGGTSWADEMNYWGQGTQVTVSS | low polyreactivity
2 | QVQLVESGGGLVQAGGSLRLSCAASGRIFDYYDMGWYRQAPGKERELVAAISNGGSTYYADSVKGRFTISRDNAKNTVYLQMNCLKPEDTAVYYCNNRWYYQYGQSHVRWYDYWGQGTQVTVSS | high polyreactivity
3 | QVQLVESGGGLVQAGGSLRLSCAASGRIFEEYAMGWYRQAPGKERELVAAITWGGSTYYADSVKGRFTISRDNAKNTVYLQMNSLKPEDTAVYYCAALKSYYWYTPRYRGDYWGQGTQVTVSS | low polyreactivity
4 | QVQLVESGGGLVQAGGSLRLSCAASGRIFENNAMGWYRQAPGKERELVAAITSGGSTYYADSVKGRFTISRDNAKNTVYLQMNSLKPEDTAVYYCNVTFRVDPWTRTGYDYWGQGTQVTVSS | high polyreactivity
5 | QVQLVESGGGLVQAGGSLRLSCAASGRIFEPYAMGWYRKAPGKERELLAAITSGGSTDYADSVKGRFTISRDNAKNTVYLQMNSLKPEDTAVYYCATRWGYAVSFDFYFLLSGVDYWGQGTQVTVSS | low polyreactivity
6 | QVQLVESGGGLVQAGGSLRLSCAASGRIFESYAMGWYIQAPGKERELVAAISSGGGTTYYADSVKGLFTISRDNAKYSVYLQMNSLKPEDTAVYYCAADALSDEYDYWGQGTHVTVSS | low polyreactivity
7 | QVQLVESGGGLVQAGGSLRLSCAASGRIFETNGMGWYRQAPGKERELVAAITRSGGVRTYADSVKGRFTISRDNAKNTVYLQMNSLKPEDTAVYYCNKRSILGRGTPSPYKRMYHWGQGTQVTVSS | low polyreactivity
8 | QVQLVESGGGLVQAGGSLRLSCAASGRIFEVYAMGWYRQAPGKERELVAAITSSGGSRTYYADSVKGRFTISRDNAKNTVYLQMNSLKPEDTAVYYCNDYGGRWIGGRRAYRYNYWGQGTQVNVSS | high polyreactivity
9 | QVQLVESGGGLVQAGGSLRLSCAASGRIFEWNTMGWYRQAPGKEREVVATISWDGGSTYYADSVKGRFTISRDNAKNTVYLQMNSLIPEDTAVYYCNKSPLNFFRFRATYDYWGQGTQVTVSS | low polyreactivity
10 | QVQLVESGGGLVQAGGSLRLSCAASGRIFFANAMGWYRQAPGKERELVAAITSDGSTDYADSVKGRFTISRDNAKNTVYLQMNSLKPEDTAVYYCNADAYYRYGITMDYWGQGTQVTVSS | low polyreactivity
11 | QVQLVESGGGLVQAGGSLRLSCAASGRIFFANTMGWYRQAPGKERELVAAISLSSGSTYYADSVKGRFTISRDNAKNTVYLQMNSLKPEDTAVYYCAARGYSHVASRLYYYWGQGTQVTVSS | high polyreactivity
12 | QVQLVESGGGLVQAGGSLRLSCAASGRIFFANTMGWYRQAPGKERELVAAISLSSGTTYYADSVKGRFTISRDNAKNTVYLQMNSLKPDETAVYYCAARGYSHVASRLYYYWGQGTQVTVSS | high polyreactivity
13 | QVQLVESGGGLVQAGGSLRLSCAASGRIFFATAMGWYRQAPGNERELVAAITSDGSTDYADSVKGRFTISRDNAKNTVYLQMNSLKPEDTAVYDCNADAYYRYGITMDYWGQGTQVTVSS | low polyreactivity
14 | QVQLVESGGGLVQAGGSLRLSCAASGRIFFFNTMGWYRQAPGKERELVARINRGGRTNYADSVKGRFTISRDNAKNTVYLQMNSLKPEDTAVYYCAADRTWYKLETTEYDYWGQGTQVTVSS | high polyreactivity
15 | QVQLVESGGGLVQAGGSLRLSCAASGRIFFHNAMGWYIQAPGKERELVATISWSGSSTYYADSVKGRFTISRDNAKNTVYLQMNSLKPEYTAVYYCNAVYGRFVVLRYDYWGQGTQVTVSS | high polyreactivity
16 | QVQLVESGGGLVQAGGSLRLSCAASGRIFFLYAMGWYRQAPGKERELVASITRRGGSTYYADSVKGRFTISRDNAKNTVYLQMKSLKPEDTAVYYCAAELYRSNVYHYDYWGQGTQVTVSS | high polyreactivity
17 | QVQLVESGGGLVQAGGSLRLSCAASGRIFFLYAMGWYRQAPGKERELVASITRRGGSTYYADSVKGRVTISRDNAKNTVYLQMTSLKPEDTAVYYCAAELYRSNVYHYDYWGQGTQVTVSS | high polyreactivity
18 | QVQLVESGGGLVQAGGSLRLSCAASGRIFFNYAMGWYIQAPGKERELVARITGSGGRTYYADSVKGRFTISRDNAKNTVYLQMNSLKPEDTAVYYCNKVPGYKYDSWGQGTQVTVSS | high polyreactivity
19 | QVQLVESGGGLVQAGGSLRLSCAASGRIFFNYAMGWYRQAPGKQRELDAAITTNGGSTYYAVSVKGRFTISRDNAKNTVYLLMNSLKPEDTAVYYCNTRRKNFVKSSQVEYWGQGTQVTVSS | high polyreactivity
20 | QVQLVESGGGLVQAGGSLRLSCAASGRIFFRNAMGWYRQAPGKEREFVAAINWSGGSTYYADSVKGRFTISRDNAKNTVYLQMNSLKPEDTAVYYCAARGSRGGRRGATASMDYWGQGTQVTVSS | high polyreactivity
21 | QVQLVESGGGLVQAGGSLRLSCAASGRIFFRYAMGWYRQAPGKERELVAAISYSGGSTYYADSVKGRFTISRDNAKNTVYLQMNSLKPDDTAVYYCATGPVYEYDYWGQGTQVTVSS | low polyreactivity
22 | QVQLVESGGGLVQAGGSLRLSCAASGRIFFVNAMGWYRQAPGKERELVAAITYSGARTYYADSVKGRFTISRDHAKNTVYLQMNSLKPEDTAVYYCNADQRTASDQLEFDYWGQGTQVTVSS | low polyreactivity

Row | Sequence | polyreactivity (PSR sort gate)
23 | QVQLVESGGGLVQAGGSLRLSCAASGRIFFWYAMGWYRQAPGKERELVAAISKSGGSTYYADSVKGRFTISRDNAKNTVYLQMNSLKPEDTAVYYCARVSKRTWSGYYYWGQGTQVTVSS | high polyreactivity
24 | QVQLVESGGGLVQAGGSLRLSCAASGRIFFYNAMGWYRQAHGKERELVAAISARGDRTYYADSVKGRFTISRDNAKNTVYLQMNSLKPEDTAVYYCAADYYNYRYDYWGQGTQVTVSS | high polyreactivity
25 | QVQLVESGGGLVQAGGSLRLSCAASGRIFFYNAMGWYRQAPGKERELVATIRGGGSTNYADSVKGRFTISRDNAKNTVYLQMNSLKPEDTAVYYCAARRGSYSVTEYWGQGTQVTVSS | high polyreactivity
26 | QVQLVESGGGLVQAGGSLRLSCAASGRIFFYNAMGWYRQAPGKETELVAAISSSGGSTSYADSVKGRFTISRDIAKNTVYLHMNSLKPEDTAVYYCAVDDPYYEKYDYWGQGTQVTVSS | low polyreactivity
27 | QVQLVESGGGLVQAGGSLRLSCAASGRIFFYYAMGWYRQAPGKERELVAAINRGGRTYYADSVKGRFTISRDNAKNTVYLQMNSLKPEDTAVYYCAADGQTAKSNFDYWGQGTQVTVSS | low polyreactivity
28 | QVQLVESGGGLVQAGGSLRLSCAASGRIFFYYAMGWYRQAPGKERELVAAIRSGGSTNYADSVKGRFTISRDNAKNTVYLQMNSLKPEDTAVYYCAADPSRYYTRRYYYWGQGTQVTVSS | high polyreactivity
29 | QVQLVESGGGLVQAGGSLRLSCAASGRIFFYYAMGWYRQAPGKERELVAAISNSGGGTYYADSVKGRFTISRDNAKNTVYLQMNSLKPEDTAVYYCAREAGRYAYKYYWWQRPDYDYWGQGTQVTVSS | low polyreactivity
30 | QVQLVESGGGLVQAGGSLRLSCAASGRIFFYYAMGWYRQAPGKERELVATITASGDSTYYADSVKGRFTISRDNAKNTVYLQMNSLKPEDTAVYYCAADDGDYYEVDYWGQGTQVTVSS | low polyreactivity
31 | QVQLVESGGGLVQAGGSLRLSCAASGRIFGAYALGWSRQAPGKEMELVADIRSTGSTYYADSVKGRFTISRDNAKNTVYLQMNSLKPEDTAVYYCAAKYWKWYHYGFGYWGQGTQVTVSS | high polyreactivity
32 | QVQLVESGGGLVQAGGSLRLSCAASGRIFGAYAMGWYRPAPGKERELVAAISARGGRTYYADSVKGRFTISRDNAKNTVYLQMNSLKPEDTAVYYCAKTLRDPYRYDYWGQGTQVTVSS | high polyreactivity
33 | QVQLVESGGGLVQAGGSLRLSCAASGRIFGAYAMGWYRQAPGKERELVAAISSRGGNTYYADSVKGRFTISRDNAKNTVYLQMNSLKPEDTAVYYCAARHDKRRQYYVGQSDFDYWGQGTQVTVSS | low polyreactivity
34 | QVQLVESGGGLVQAGGSLRLSCAASGRIFGAYAMGWYRQAPGKERELVATITKRGGSTFYADSVKGRFTISRDNAKNTVYVKMNSLKPEDTAVYYCAVVRYSPKRYWYGYWGQGTQVTVSS | high polyreactivity
35 | QVQLVESGGGLVQAGGSLRLSCAASGRIFGAYAMGWYRQAPGKEREWVAVINWRSGGTYYADSVKGRFTISRDNAKNTVYLQMNSLKPVDTAVYYCAADDYGFFSAGDFDYWGHGTQVTVSS | high polyreactivity
36 | QVQLVESGGGLVQAGGSLRLSCAASGRIFGDYALGWYRQAPGKERELVAAISWSDGSTYYADSVKGRFTISRDKAKNTVYLQMNSLKPEDTAVYYCAAYGWGYSYVDVVVSDFYYWGQGTQVTVSS | low polyreactivity
37 | QVQLVESGGGLVQAGGSLRLSCAASGRIFGDYGMGWYRQAPGKERELVAAITDRGGPTYYADSVKGRFTISRDNAKNTVYLQRNSLKPEDTAVYYCNARQSDIFDYDYWGQGTQVTVSS | low polyreactivity
38 | QVQLVESGGGLVQAGGSLRLSCAASGRIFGDYGMGWYRQAPGNERELVAAITDRGGTTYYADSVKGRFTISRDNAKNTVYLQMNSLKPEDTAVYYCNARQSDIFDYDYWGQGTQVTVSS | low polyreactivity
39 | QVQLVESGGGLVQAGGSLRLSCAASGRIFGENAMGWYRQAPGKEREFVAVISISDASTYYADSVKGRFTISRDNAKNTVYLQMNSLKPEDTAVYYCNTDYINGYYIEGEPPYKFDYWGQGTQVTVSS | low polyreactivity
40 | QVQLVESGGGLVQAGGSLRLSCAASGRIFGFNTMGWYRQAPGKERELVAAITSGGSTYADSVKGRFTISRDNAKNTVYLQMNSLKPEDTAVYYCNTRFYRPLWGYNYWGQGTQVTVSS | low polyreactivity
41 | QVQLVESGGGLVQAGGSLRLSCAASGRIFGGNAMGWSRQAPGKERELVAAISWSGGSTYADSVKGRFTISRDNAKNTVYLQMNSLKPEDTAVYYCATRLVKYYYYDYRTYGRRYDYWGQGTQVTVSS | high polyreactivity
42 | QVQLVESGGGLVQAGGSLRLSCAASGRIFGGYALGWYRQAPGKERELVAAITRSGGSTYYADSVKGRFTISRDNAKNTVYVQMNSLKPEDTAVYYCAARNYYSWRYDYWGQGTQVTVSS | high polyreactivity
43 | QVQLVESGGGLVQAGGSLRLSCAASGRIFGGYAMGWYRQAPGKERELVASITGGGTTDYADSVKGRFTISRDNAKNTVYLQMNSLKPEDTAVYNCAIRTHQFGVSRSYNTYYYWGQGTQVTVSS | low polyreactivity
